{"source": "patent US20240261333A1", "about": "“NOVEL TARGETS FOR ENHANCING ANTI-TUMOR IMMUNITY” (THE BROAD INSTITUTE, INC., priority 2021, published 2024)", "key": {"SRP14 (human) [1]": {"target": "SRP14 (human) (UniProt P37108)", "sequence (P37108 2-136 limits assumed)": "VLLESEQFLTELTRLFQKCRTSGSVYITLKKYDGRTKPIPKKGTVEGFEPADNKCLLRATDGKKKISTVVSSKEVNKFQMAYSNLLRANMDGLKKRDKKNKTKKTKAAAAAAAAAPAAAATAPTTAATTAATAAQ", "assay": "IgG control IP from lysate of cells overexpressing C-FLAG B3GNT2, then mass spectrometry"}, "CPSF6 (human) [2]": {"target": "CPSF6 (human) (UniProt Q16630)", "sequence (Q16630 other isoform, or with tags, fused parts or gaps limits assumed)": "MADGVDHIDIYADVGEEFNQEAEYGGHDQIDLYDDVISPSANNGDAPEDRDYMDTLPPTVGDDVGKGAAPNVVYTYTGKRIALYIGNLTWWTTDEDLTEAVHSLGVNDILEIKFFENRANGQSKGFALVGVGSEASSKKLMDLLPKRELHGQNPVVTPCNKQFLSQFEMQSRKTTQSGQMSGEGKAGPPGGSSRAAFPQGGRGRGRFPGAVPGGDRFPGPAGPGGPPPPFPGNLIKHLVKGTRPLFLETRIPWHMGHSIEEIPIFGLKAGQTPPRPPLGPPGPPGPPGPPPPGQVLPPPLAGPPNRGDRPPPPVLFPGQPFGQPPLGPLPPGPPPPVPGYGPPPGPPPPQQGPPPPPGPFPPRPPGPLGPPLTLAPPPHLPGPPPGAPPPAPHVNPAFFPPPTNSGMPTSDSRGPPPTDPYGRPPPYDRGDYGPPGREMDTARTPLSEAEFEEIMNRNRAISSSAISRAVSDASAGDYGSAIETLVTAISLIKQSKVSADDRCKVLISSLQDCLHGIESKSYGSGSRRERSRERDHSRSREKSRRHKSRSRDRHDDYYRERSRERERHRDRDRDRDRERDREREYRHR", "assay": "IgG control IP from lysate of cells overexpressing C-FLAG B3GNT2, then mass spectrometry"}, "KHDRBS1 (human)": {"target": "KHDRBS1 (human) (UniProt Q07666)", "sequence (Q07666 whole entry)": "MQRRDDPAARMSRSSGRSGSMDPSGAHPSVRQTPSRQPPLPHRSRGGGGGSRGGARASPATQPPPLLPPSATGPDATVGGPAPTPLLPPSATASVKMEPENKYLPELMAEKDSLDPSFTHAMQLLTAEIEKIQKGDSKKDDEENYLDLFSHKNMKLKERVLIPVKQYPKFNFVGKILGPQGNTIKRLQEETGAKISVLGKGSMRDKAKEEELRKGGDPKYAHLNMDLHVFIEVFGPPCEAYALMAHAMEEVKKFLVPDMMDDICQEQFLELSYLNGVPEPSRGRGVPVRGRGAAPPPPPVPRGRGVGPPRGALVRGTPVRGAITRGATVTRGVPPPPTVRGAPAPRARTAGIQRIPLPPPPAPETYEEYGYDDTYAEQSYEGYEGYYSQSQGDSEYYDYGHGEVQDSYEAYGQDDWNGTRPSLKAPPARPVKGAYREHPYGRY", "assay": "IgG control IP from lysate of cells overexpressing C-FLAG B3GNT2, then mass spectrometry"}, "TAF15 (human) [3]": {"target": "TAF15 (human) (UniProt Q92804)", "sequence (Q92804 other isoform, or with tags, fused parts or gaps limits assumed)": "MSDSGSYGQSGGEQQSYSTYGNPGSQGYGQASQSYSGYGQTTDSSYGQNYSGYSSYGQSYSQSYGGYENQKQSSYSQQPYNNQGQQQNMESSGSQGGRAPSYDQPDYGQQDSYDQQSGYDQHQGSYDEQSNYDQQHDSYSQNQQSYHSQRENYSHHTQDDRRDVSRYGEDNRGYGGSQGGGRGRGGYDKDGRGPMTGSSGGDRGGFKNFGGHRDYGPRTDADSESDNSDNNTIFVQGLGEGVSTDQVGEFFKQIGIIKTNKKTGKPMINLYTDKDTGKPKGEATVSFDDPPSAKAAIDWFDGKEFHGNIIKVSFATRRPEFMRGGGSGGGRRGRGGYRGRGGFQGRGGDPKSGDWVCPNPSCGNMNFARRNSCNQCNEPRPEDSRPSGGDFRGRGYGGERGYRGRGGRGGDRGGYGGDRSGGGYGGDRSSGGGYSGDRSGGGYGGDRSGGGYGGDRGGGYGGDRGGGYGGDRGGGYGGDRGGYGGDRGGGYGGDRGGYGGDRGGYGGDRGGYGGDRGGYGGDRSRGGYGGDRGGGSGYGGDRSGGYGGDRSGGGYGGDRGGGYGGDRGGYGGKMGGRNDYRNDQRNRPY", "assay": "IgG control IP from lysate of cells overexpressing C-FLAG B3GNT2, then mass spectrometry"}, "TCP1 (human) [4]": {"target": "TCP1 (human) (UniProt P17987)", "sequence (P17987 whole entry)": "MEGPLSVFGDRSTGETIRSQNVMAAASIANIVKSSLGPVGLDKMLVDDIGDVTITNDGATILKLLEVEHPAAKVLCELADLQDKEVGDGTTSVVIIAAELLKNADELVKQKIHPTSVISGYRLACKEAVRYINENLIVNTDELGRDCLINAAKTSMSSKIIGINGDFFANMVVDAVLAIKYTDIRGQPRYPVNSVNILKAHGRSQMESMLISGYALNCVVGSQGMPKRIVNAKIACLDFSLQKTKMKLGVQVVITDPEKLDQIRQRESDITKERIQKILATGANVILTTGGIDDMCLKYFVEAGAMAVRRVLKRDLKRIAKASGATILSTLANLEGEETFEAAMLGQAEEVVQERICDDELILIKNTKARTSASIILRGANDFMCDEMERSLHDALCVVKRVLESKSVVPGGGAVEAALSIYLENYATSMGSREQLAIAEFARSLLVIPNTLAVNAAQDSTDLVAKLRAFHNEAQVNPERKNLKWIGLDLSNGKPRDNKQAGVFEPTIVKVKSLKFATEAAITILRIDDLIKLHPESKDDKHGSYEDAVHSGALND", "assay": "IgG control IP from lysate of cells overexpressing C-FLAG B3GNT2, then mass spectrometry"}, "SUPT16H (human)": {"target": "SUPT16H (human) (UniProt Q9Y5B9)", "assay": "IgG control IP from lysate of cells overexpressing C-FLAG B3GNT2, then mass spectrometry"}, "TIMP3 (human) [5]": {"target": "TIMP3 (human) (UniProt P35625)", "sequence (P35625 24-211 limits assumed)": "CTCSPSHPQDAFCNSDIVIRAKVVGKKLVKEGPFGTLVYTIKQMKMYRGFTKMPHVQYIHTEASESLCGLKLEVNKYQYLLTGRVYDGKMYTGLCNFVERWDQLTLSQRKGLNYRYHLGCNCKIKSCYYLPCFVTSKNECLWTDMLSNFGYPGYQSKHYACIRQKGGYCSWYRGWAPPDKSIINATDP", "assay": "IgG control IP from lysate of cells overexpressing C-FLAG B3GNT2, then mass spectrometry"}, "VIM (human) [6]": {"target": "VIM (human) (UniProt P08670)", "sequence (P08670 2-466 limits assumed)": "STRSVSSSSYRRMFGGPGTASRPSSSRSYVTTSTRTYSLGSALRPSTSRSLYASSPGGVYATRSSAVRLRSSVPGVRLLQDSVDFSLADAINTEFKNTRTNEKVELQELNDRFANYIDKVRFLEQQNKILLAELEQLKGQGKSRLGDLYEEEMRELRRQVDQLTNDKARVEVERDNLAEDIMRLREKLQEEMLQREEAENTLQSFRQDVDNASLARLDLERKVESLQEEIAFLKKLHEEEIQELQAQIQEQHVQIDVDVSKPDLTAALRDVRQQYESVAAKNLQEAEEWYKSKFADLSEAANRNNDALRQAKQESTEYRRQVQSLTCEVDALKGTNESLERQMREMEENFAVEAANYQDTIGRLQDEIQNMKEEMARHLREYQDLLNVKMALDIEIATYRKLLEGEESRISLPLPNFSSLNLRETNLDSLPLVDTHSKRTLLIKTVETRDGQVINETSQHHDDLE", "assay": "IgG control IP from lysate of cells overexpressing C-FLAG B3GNT2, then mass spectrometry"}, "ANXA2 (human)": {"target": "ANXA2 (human) (UniProt P07355)", "sequence (P07355 other isoform, or with tags, fused parts or gaps limits assumed)": "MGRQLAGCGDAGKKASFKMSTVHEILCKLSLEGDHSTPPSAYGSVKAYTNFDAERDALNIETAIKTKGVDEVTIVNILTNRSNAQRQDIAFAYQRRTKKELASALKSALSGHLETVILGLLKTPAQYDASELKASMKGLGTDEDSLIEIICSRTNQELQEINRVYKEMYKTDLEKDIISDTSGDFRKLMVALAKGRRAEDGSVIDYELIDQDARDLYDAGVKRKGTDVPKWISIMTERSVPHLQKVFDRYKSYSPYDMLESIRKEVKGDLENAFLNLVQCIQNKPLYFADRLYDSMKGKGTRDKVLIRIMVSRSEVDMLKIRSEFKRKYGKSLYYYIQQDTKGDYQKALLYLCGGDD", "assay": "IgG control IP from lysate of cells overexpressing C-FLAG B3GNT2, then mass spectrometry"}, "TFAM (human) [7]": {"target": "TFAM (human) (UniProt Q00059)", "sequence (Q00059 43-246 limits assumed)": "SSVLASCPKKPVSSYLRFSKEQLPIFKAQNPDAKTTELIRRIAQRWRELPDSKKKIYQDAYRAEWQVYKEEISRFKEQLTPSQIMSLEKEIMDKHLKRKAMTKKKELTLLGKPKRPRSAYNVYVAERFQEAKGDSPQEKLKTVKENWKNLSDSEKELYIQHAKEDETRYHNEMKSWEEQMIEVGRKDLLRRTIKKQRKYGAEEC", "assay": "IgG control IP from lysate of cells overexpressing C-FLAG B3GNT2, then mass spectrometry"}, "MAGED2 (human) [8]": {"target": "MAGED2 (human) (UniProt Q9UNF1)", "sequence (Q9UNF1 2-606 limits assumed)": "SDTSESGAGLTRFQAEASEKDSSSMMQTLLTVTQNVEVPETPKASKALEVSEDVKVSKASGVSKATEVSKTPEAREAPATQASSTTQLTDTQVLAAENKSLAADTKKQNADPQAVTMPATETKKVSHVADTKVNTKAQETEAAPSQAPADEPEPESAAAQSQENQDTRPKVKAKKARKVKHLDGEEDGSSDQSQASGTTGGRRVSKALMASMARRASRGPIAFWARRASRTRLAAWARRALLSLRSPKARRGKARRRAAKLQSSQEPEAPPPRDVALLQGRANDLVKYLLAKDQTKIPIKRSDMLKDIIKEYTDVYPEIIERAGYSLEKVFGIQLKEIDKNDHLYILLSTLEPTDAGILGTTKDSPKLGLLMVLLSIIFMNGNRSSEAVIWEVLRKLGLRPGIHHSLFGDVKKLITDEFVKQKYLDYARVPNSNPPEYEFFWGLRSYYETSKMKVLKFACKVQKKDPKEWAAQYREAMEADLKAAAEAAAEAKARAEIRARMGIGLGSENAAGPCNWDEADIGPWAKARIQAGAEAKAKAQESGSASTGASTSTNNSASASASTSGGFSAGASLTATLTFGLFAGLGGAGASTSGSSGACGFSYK", "assay": "IgG control IP from lysate of cells overexpressing C-FLAG B3GNT2, then mass spectrometry"}, "CASC3 (human) [9]": {"target": "CASC3 (human) (UniProt O15234)", "sequence (O15234 whole entry)": "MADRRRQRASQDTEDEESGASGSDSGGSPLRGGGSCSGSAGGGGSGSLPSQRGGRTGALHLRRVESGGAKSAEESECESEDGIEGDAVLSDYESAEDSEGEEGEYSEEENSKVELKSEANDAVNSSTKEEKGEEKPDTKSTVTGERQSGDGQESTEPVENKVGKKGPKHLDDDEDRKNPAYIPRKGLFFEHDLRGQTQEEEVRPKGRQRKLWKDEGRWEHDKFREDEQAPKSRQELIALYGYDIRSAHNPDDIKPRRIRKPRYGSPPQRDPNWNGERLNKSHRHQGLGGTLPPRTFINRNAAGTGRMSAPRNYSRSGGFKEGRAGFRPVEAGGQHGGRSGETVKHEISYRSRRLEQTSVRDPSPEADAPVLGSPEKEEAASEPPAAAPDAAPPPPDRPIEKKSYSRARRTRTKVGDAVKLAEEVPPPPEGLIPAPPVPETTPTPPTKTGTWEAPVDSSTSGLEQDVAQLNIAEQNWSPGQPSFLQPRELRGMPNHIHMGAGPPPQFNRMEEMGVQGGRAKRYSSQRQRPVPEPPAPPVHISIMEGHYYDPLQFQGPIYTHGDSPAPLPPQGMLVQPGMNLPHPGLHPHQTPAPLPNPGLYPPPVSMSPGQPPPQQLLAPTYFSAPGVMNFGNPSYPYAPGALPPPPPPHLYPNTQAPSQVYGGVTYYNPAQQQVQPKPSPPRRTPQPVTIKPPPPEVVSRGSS", "assay": "IgG control IP from lysate of cells overexpressing C-FLAG B3GNT2, then mass spectrometry"}, "CAPRIN1 (human)": {"target": "CAPRIN1 (human) (UniProt Q14444)", "assay": "IgG control IP from lysate of cells overexpressing C-FLAG B3GNT2, then mass spectrometry"}, "EIF3I (human)": {"target": "EIF3I (human) (UniProt Q13347)", "assay": "IgG control IP from lysate of cells overexpressing C-FLAG B3GNT2, then mass spectrometry"}, "PABPC1 (human)": {"target": "PABPC1 (human) (UniProt P11940)", "assay": "IgG control IP from lysate of cells overexpressing C-FLAG B3GNT2, then mass spectrometry"}, "SRP14 (human) [10]": {"target": "SRP14 (human) (UniProt P37108)", "assay": "IgG control IP from lysate of cells overexpressing N-FLAG B3GNT2, then mass spectrometry"}, "CPSF6 (human) [11]": {"target": "CPSF6 (human) (UniProt Q16630)", "assay": "IgG control IP from lysate of cells overexpressing N-FLAG B3GNT2, then mass spectrometry"}, "TAF15 (human) [12]": {"target": "TAF15 (human) (UniProt Q92804)", "assay": "IgG control IP from lysate of cells overexpressing N-FLAG B3GNT2, then mass spectrometry"}, "TCP1 (human) [13]": {"target": "TCP1 (human) (UniProt P17987)", "assay": "IgG control IP from lysate of cells overexpressing N-FLAG B3GNT2, then mass spectrometry"}, "TIMP3 (human) [14]": {"target": "TIMP3 (human) (UniProt P35625)", "assay": "IgG control IP from lysate of cells overexpressing N-FLAG B3GNT2, then mass spectrometry"}, "VIM (human) [15]": {"target": "VIM (human) (UniProt P08670)", "assay": "IgG control IP from lysate of cells overexpressing N-FLAG B3GNT2, then mass spectrometry"}, "TFAM (human) [16]": {"target": "TFAM (human) (UniProt Q00059)", "assay": "IgG control IP from lysate of cells overexpressing N-FLAG B3GNT2, then mass spectrometry"}, "MAGED2 (human) [17]": {"target": "MAGED2 (human) (UniProt Q9UNF1)", "assay": "IgG control IP from lysate of cells overexpressing N-FLAG B3GNT2, then mass spectrometry"}, "CASC3 (human) [18]": {"target": "CASC3 (human) (UniProt O15234)", "assay": "IgG control IP from lysate of cells overexpressing N-FLAG B3GNT2, then mass spectrometry"}, "CSE1L (human)": {"target": "CSE1L (human) (UniProt P55060)", "assay": "co-IP, anti-FLAG, lysate of cells with C-FLAG B3GNT2; mass spectrometry"}, "EIF5B (human)": {"target": "EIF5B (human) (UniProt O60841)", "assay": "co-IP, anti-FLAG, lysate of cells with C-FLAG B3GNT2; mass spectrometry"}, "SERBP1 (human)": {"target": "T1, SERBP1 (human) (UniProt Q8NC51)", "T1 sequence (looked up)": "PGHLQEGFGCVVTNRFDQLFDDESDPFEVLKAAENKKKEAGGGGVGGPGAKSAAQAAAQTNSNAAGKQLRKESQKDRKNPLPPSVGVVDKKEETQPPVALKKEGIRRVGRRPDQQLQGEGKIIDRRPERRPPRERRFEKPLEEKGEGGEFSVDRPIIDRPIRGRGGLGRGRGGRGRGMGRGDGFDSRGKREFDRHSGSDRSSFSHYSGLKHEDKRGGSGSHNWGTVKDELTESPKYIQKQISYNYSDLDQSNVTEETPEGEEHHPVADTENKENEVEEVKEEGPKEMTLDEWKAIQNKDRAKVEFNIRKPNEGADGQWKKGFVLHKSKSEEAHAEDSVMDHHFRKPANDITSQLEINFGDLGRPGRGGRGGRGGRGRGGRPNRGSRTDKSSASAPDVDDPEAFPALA", "assay": "co-IP, anti-FLAG, lysate of cells with C-FLAG B3GNT2; mass spectrometry"}, "KRT4 (human)": {"target": "KRT4 (human) (UniProt P19013)", "assay": "co-IP, anti-FLAG, lysate of cells with C-FLAG B3GNT2; mass spectrometry"}, "ARPC4 (human)": {"target": "ARPC4 (human) (UniProt P59998)", "assay": "co-IP, anti-FLAG, lysate of cells with C-FLAG B3GNT2; mass spectrometry"}, "RPL10 (human)": {"target": "RPL10 (human) (UniProt P27635)", "assay": "co-IP, anti-FLAG, lysate of cells with C-FLAG B3GNT2; mass spectrometry"}, "SPTAN1 (human)": {"target": "SPTAN1 (human) (UniProt Q13813)", "assay": "co-IP, anti-FLAG, lysate of cells with C-FLAG B3GNT2; mass spectrometry"}, "PUM1 (human)": {"target": "PUM1 (human) (UniProt Q14671)", "assay": "co-IP, anti-FLAG, lysate of cells with C-FLAG B3GNT2; mass spectrometry"}, "RPL4 (human)": {"target": "RPL4 (human) (UniProt P36578)", "assay": "co-IP, anti-FLAG, lysate of cells with C-FLAG B3GNT2; mass spectrometry"}}}
{"substance": "IgG control (Millipore Sigma 12-371) (antibody)", "values": [{"measurement": "co-IP mass spectrometry count (C-term IgG)", "setting": "SRP14 (human) [1]", "result": 0}, {"measurement": "co-IP mass spectrometry count (C-term IgG)", "setting": "CPSF6 (human) [2]", "result": 33}, {"measurement": "co-IP mass spectrometry count (C-term IgG)", "setting": "KHDRBS1 (human)", "result": 7}, {"measurement": "co-IP mass spectrometry count (C-term IgG)", "setting": "TAF15 (human) [3]", "result": 4}, {"measurement": "co-IP mass spectrometry count (C-term IgG)", "setting": "TCP1 (human) [4]", "result": 0}, {"measurement": "co-IP mass spectrometry count (C-term IgG)", "setting": "SUPT16H (human)", "result": 0}, {"measurement": "co-IP mass spectrometry count (C-term IgG)", "setting": "TIMP3 (human) [5]", "result": 0}, {"measurement": "co-IP mass spectrometry count (C-term IgG)", "setting": "VIM (human) [6]", "result": 337}, {"measurement": "co-IP mass spectrometry count (C-term IgG)", "setting": "ANXA2 (human)", "result": 16}, {"measurement": "co-IP mass spectrometry count (C-term IgG)", "setting": "TFAM (human) [7]", "result": 0}, {"measurement": "co-IP mass spectrometry count (C-term IgG)", "setting": "MAGED2 (human) [8]", "result": 0}, {"measurement": "co-IP mass spectrometry count (C-term IgG)", "setting": "CASC3 (human) [9]", "result": 0}, {"measurement": "co-IP mass spectrometry count (C-term IgG)", "setting": "CAPRIN1 (human)", "result": 6}, {"measurement": "co-IP mass spectrometry count (C-term IgG)", "setting": "EIF3I (human)", "result": 0}, {"measurement": "co-IP mass spectrometry count (C-term IgG)", "setting": "PABPC1 (human)", "result": 30}, {"measurement": "co-IP mass spectrometry count (N-term IgG)", "setting": "SRP14 (human) [10]", "result": 0}, {"measurement": "co-IP mass spectrometry count (N-term IgG)", "setting": "CPSF6 (human) [11]", "result": 28}, {"measurement": "co-IP mass spectrometry count (N-term IgG)", "setting": "TAF15 (human) [12]", "result": 10}, {"measurement": "co-IP mass spectrometry count (N-term IgG)", "setting": "TCP1 (human) [13]", "result": 0}, {"measurement": "co-IP mass spectrometry count (N-term IgG)", "setting": "TIMP3 (human) [14]", "result": 0}, {"measurement": "co-IP mass spectrometry count (N-term IgG)", "setting": "VIM (human) [15]", "result": 452}, {"measurement": "co-IP mass spectrometry count (N-term IgG)", "setting": "TFAM (human) [16]", "result": 0}, {"measurement": "co-IP mass spectrometry count (N-term IgG)", "setting": "MAGED2 (human) [17]", "result": 0}, {"measurement": "co-IP mass spectrometry count (N-term IgG)", "setting": "CASC3 (human) [18]", "result": 0}]}
{"substance": "C-terminal FLAG tagged B3GNT2 (from UniProt Q9NY97 1-397) (enzyme)", "values": [{"measurement": "co-IP mass spectrometry count", "setting": "CSE1L (human)", "result": 3}, {"measurement": "co-IP mass spectrometry count", "setting": "EIF5B (human)", "result": 3}, {"measurement": "co-IP mass spectrometry count", "setting": "SERBP1 (human)", "result": 10}, {"measurement": "co-IP mass spectrometry count", "setting": "KRT4 (human)", "result": 37}, {"measurement": "co-IP mass spectrometry count", "setting": "ARPC4 (human)", "result": 3}, {"measurement": "co-IP mass spectrometry count", "setting": "RPL10 (human)", "result": 15}, {"measurement": "co-IP mass spectrometry count", "setting": "SPTAN1 (human)", "result": 3}, {"measurement": "co-IP mass spectrometry count", "setting": "PUM1 (human)", "result": 3}, {"measurement": "co-IP mass spectrometry count", "setting": "RPL4 (human)", "result": 36}]}
